Molecular target: porcine pancreatic elastase (Merck, Germany, Cat. No. 324682) (porcine) (UniProt P00772)
Assay: cell-based or functional assay

UniProt P00772, sequence (P00772 27-266 limits assumed): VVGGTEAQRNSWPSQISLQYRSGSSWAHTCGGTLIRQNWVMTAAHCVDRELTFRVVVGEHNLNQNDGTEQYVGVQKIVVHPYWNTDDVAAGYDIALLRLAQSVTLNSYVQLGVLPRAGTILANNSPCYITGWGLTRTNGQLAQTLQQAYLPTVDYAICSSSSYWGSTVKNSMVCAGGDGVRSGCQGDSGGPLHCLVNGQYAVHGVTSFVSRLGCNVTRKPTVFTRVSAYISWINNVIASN

% active AAT relative to plasma-derived AAT (elastase inhibition, SAPNA hydrolysis at 410 nm), Assay 1 [%] | % active AAT relative to plasma-derived AAT (elastase inhibition, SAPNA hydrolysis at 410 nm), Assay 2 [%] | Average % Activity (elastase inhibition, SAPNA hydrolysis at 410 nm) [%] | Substance
97.1 | 93 | 95.4 | remodelled rAAT (rAAT incubated with beta1,4-galactosyltransferase, alpha2,3 sialyltransferase from Pasteurella multocida and alpha2,6 sialyltransferase from Photobacterium damselae, then purified) (from UniProt P01009 25-418)
90.1 | 88.6 | 89.3 | recombinant alpha-1 antitrypsin produced in CHO-DG44 cells, untreated (from UniProt P01009 25-418)

Reference: patent US20220251619A1
